Source: US20250355001A1, “METHOD FOR DETECTING A TAU PROTEIN FRAGMENT IN A SAMPLE” (GTINVENT LIMITED, priority 2022, published 2025)

B1: CE3: anti-tau core clone, Table 10; SEQ ID NO: 367 (protein)
scFv: QVRLQESGPSLVKPSQTLSVTCTVSGFSLISNAVGWVRQAPGKVPESLAGCSSDGKCYYNSALKSRLDITRDTSKNQISLSLSSVTTDDAAVYYCTRGYYPVYGYDYLGTIDYWGPGLLVTVSSEGKSSGASGESKVDDQAVLTQPSSVSGSLGQRVSITCSGSSSNVGRNDVAWFQQLPGSGLRTIIYGTTSRPSGIPDRFSGSKSGVTATLTIDSLQAEDEADYFCASGDSSAINDIFGSGTRLTVLG
modifications: CE3 amino acid sequence
B2: NS2A1: anti-tau clone, Table 11; SEQ ID NO: 220 (protein)
scFv: QVQLQESGPSLVKPSQTLSLTCTVSGFSLSTNSVGWVRQAPGKAPEWVAGIDTDGEEGFNPVLKSRLSITRDTSKSQVSLSLSNVTSEDTAVYYCGRSYRTDGLAYGYVQAIDYWGPGLLVTISSEGKSSGASGESKVDDQSVLTQPSSVSGSPGQTVSITCSGSYIGSSGVGWFQQLPGSGLRTIIVASDGRPSGVPDGFSMSKSGNTATLTISSLQAEDEADYFCGSSDRTQYTGLFGSGTRLTVLG
modifications: NS2A1 amino acid sequence
B3: CB3: anti-tau core clone, Table 10; SEQ ID NO: 370 (protein)
scFv: QVQLQESGPSLVKPSQTLSLTCTVSGFSLSSVAVNWVRQAPGKVPEWLGGIISNGGTGYNPALKSRLSITRDTSKSQVSLALTHVTTEDTAVYYCGRGVEWEGSMDYLGPGLLVTVSSEGKSSGSGSETKVDDQSVLTQPSSVSGFLGQRVTITCSGSSSNVGAGSYVGWYQQVPGSGLRILIYGATKRASGLPDRFSGSRSGNTATLTISSLQAEDEADYYCVSYQTDFTLVFGSGTRLTVLG
modifications: CB3 amino acid sequence
B4: CA9: anti-tau clone, Tables 2 and 10; SEQ ID NO: 371 (protein)
scFv: QVQLQESGPSLVKPSQTLSLTCTVSGFSLTSNSVGWVRQAPGKAPEWVAGIDTDGEEGYNPALNSRLSITRDTSKSQVSLSLSSVTSEDTAVYYCGRSYRSDGLAYGYVQAIDYWGPGLLVTVSSEGKSSGASGESKVDDQAVLTQPASVSGSLGQRVSITCSGSFIGISSVGWFQQLPGSGLRTIIVASDGRPSGVPDRFSMSKSGNTATLTISSLQAEDEADYFCGSSDRTQYTGVFGSGTRLTVLG
modifications: CA9 amino acid sequence

Columns and labels:
[1] = test system: hT40, dGA, dGAE and truncated tau fragments; assay: Binding ELISA / epitope mapping of anti-tau scAbs with truncated tau proteins and 13mer peptides; parameters: species or system human; settings: for Tau proteins/fragments with positive scAb reactivity: binding ELISA; for Shortest region bound on hT40: incl. 13mer peptides
How it was run: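 Plates coated with 1 μg/ml tau protein, or 5 μg/ml streptavidin then 1 μg/ml biotinylated 13mer peptide; blocked with 2% MPBS. scAbs added at a starting concentration and double-diluted. Bound scAb detected with HRP anti-human C kappa and read as absorbance.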

[2] = molecular target: T1, hT40 (T441, SEQ ID NO: 1) (Homo sapiens, UniProt P10636); assay: Biacore X100 SPR kinetics of scAbs for hT40; type: binding; settings: Table 23; scAb captured, T441 (hT40) analyte; 1:1 model
T1 construct: Full length tau (hT40)
Description: Surface plasmon resonance (SPR) is widely regarded as the gold standard for real time measurement of protein-protein interactions such as antibody binding. All SPR experiments were carried out using a Biacore X100 machine and HBS EP+ running buffer (GE Healthcare). A ‘capture’ method was followed for affinity measurements, where an anti-human constant kappa chain (HuCk) antibody was conjugated to the surface of a CM5 sensor chip using an amine coupling kit and scAb molecules were immobilised via their HuCk domain. Amine coupling is a very common approach for immobilising the ligand to the chip surface. […] The capture antibody was diluted 1/100 in 10 mM Sodium acetate buffer pH 5.0 and passed over the activated chip surface for a period of at least 420 s. Final ligand immobilisation levels over 12,000 RU were deemed to be satisfactory.
(§1) Following immobilisation, the level of each scAb to be captured was identified using the standard SPR equation with a theoretical RMax of 100 RU. Analyte MW refers to the molecular weight of hT40 or dGA/dGAE molecules, while ligand MW refers to the molecular weight of the scAbs tested. RL is the desired capture level and S refers to the stoichiometric ratio:
The scAb to be tested was added only to flow cell 2 so that flow cell 1 could act as a control to subtract any interaction with the analyte and the chip surface. Both single and multi-cycle runs were utilised using wizards developed in the Biacore X100 control software which are both accepted methods of kinetic analysis (Karlsson, R., et al. Analyzing a kinetic titration series using affinity biosensors (2006) Analytical Biochemistry 349:136-47). The multi-cycle protocol was as follows-Three start-up cycles composed of an initial capture, to the desired level, of the scAb to be tested was performed followed by a 30 s injection of glycine buffer pH 2.0 after each cycle to regenerate the chip surface. […] Following three start-up cycles increasing concentrations (0.15625 nM-100 nM) of the target to be tested were added to the chip surface after the desired scAb capture. The target was added for a 120 s association period and 420 s dissociation period followed by another regeneration, 30 s injection of glycine buffer pH 2.0 in between each cycle.
(§2) The single cycle kinetics protocol was similar and utilised the same level of scAb capture. Three start-up cycles were used followed by 5 increasing concentrations of the analyte (6.25 nM-100 nM) for an association period of 120 s followed by a dissociation period of 420 s for each concentration. In single cycle kinetics the regeneration step was performed only after the final analyte concentration was added. Binding responses were analysed in Biacore X100 evaluation software and data fitted to a 1:1 binding model to obtain kinetic and affinity characterisation.

htau40 = molecular target: T2, htau40 (Homo sapiens, UniProt P10636); assay: Biacore X100 SPR kinetics of anti-tau mAbs on immobilised htau40; type: binding; settings: Table 27; mAb format, immobilised htau40
T2 construct: Full length tau (hT40)
Description: For anti-tau mAb SPR measurements, htau40 was conjugated to the surface of a CM5 sensor chip using amine coupling as explained previously. Briefly, 2 μg/mL htau40 in 10 mM Sodium acetate buffer (pH 4.0) was passed over the activated chip surface (EDC/NHS) in flow cell 2 for a period for 45 s followed by blocking with 1 M ethanolamine-HCl PH 8.5. Flow cell 1 was set up as reference control and blocked simultaneously. Final immobilisation level of htau40 (Rmax) was approximately 250 RU. Following a minimum of three start-up cycles, increasing concentrations (0.78 nM-25 nM) of the mAb in HBS-EP+ buffer was added at a rate of […] to the chip. The mAb was added for a 120 s association period and 600 s dissociation period followed by a regeneration cycle of 30 s injection of glycine buffer pH 1.5 in between each cycle. Binding responses were analysed in Biacore X100 evaluation software and data fitted to a 1:1 binding model to obtain kinetic and affinity characterisation.
For anti-tau mAb SPR measurements (Biacore X100™) and epitope mapping, the same methodologies described above (see Example 16) were followed. Kinetic rates and equilibrium binding constants of additional anti-tau mAbs and the regions recognised on hT40 are given in the Table 25 below

dGAE aggregates = dGAE aggregates (Homo sapiens, UniProt P10636); assay: Epitope occlusion assay: dGAE aggregation with/without LMTM, 423 mAb capture ELISA; type: biochemical; settings: total and supernatant samples; 423 mAb capture
Description: During dGAE aggregation in vitro, scAb binding regions on dGA/dGAE are ‘hidden’ or ‘occluded’ which leads to a loss of immunoreactivity in aggregation samples. Here we have shown the occlusion of binding regions in aggregated dGAE samples and the recovery of immunoreactivity in the presence of LMTM, a tau-aggregation inhibitor. For preparing the aggregates, 10 μl 10 mM DTT was added to 1000 μl 100 μM dGAE and agitated with/without LMTM (1:5 ratio) at 700 rpm for 24 h at 37° C. Following overnight agitation, one third of each sample was kept aside as ‘total’ and the rest was spun down at 16000×g for 30 min and separated into ‘supernatant’ and ‘pellet’. The pellet was then resuspended in half the original volume for further experiments. […] Doubling dilutions of dGAE aggregate ‘total’, ‘supernatant’ and ‘pellet’ samples at 10 μg/ml starting concentration were added to designated wells in doubling dilutions in 1×PBS. dGAE monomer (non-aggregated) was included as assay control. All double dilutions were done in final volumes of 100 μl. This was left to incubate on lab bench for 1 h followed by the addition of test scAbs at 10 μg/ml. Anti-HuCk HRP labelled secondary antibody was added as described previously and ELISA data generated is represented using the graph below.

dGA (SEQ ID NO: 5) = dGA (SEQ ID NO: 5) (Homo sapiens, UniProt P10636); assay: Biacore X100 SPR kinetics of scAbs for dGA; type: binding; settings: Table 24, scAb, dGA analyte
Description: Surface plasmon resonance (SPR) is widely regarded as the gold standard for real time measurement of protein-protein interactions such as antibody binding. All SPR experiments were carried out using a Biacore X100 machine and HBS EP+ running buffer (GE Healthcare). A ‘capture’ method was followed for affinity measurements, where an anti-human constant kappa chain (HuCk) antibody was conjugated to the surface of a CM5 sensor chip using an amine coupling kit and scAb molecules were immobilised via their HuCk domain. Amine coupling is a very common approach for immobilising the ligand to the chip surface. The chip surface has a dextran matrix derivatised with carboxyl groups, which after activation with N-hydroxysuccinimide (NHS) and 1-ethyl-3-(3-dimethylaminopropyl) carbodiimide (EDC), form reactive succinimide esters which allows the covalent capturing of the ligand via any available primary amine groups (e.g. Lysine) on the ligand (in this case anti-HuCk antibody). The capture antibody was diluted 1/100 in 10 mM Sodium acetate buffer pH 5.0 and passed over the activated chip surface for a period of at least 420 s. Final ligand immobilisation levels over 12,000 RU were deemed to be satisfactory.
as §1
The scAb to be tested was added only to flow cell 2 so that flow cell 1 could act as a control to subtract any interaction with the analyte and the chip surface. Both single and multi-cycle runs were utilised using wizards developed in the Biacore X100 control software which are both accepted methods of kinetic analysis (Karlsson, R., et al. Analyzing a kinetic titration series using affinity biosensors (2006) Analytical Biochemistry 349:136-47). The multi-cycle protocol was as follows-Three start-up cycles composed of an initial capture, to the desired level, of the scAb to be tested was performed followed by a 30 s injection of glycine buffer pH 2.0 after each cycle to regenerate the chip surface. The regeneration step removed any captured scAb whilst leaving the capture antibody intact and able to repeat the capture for the next cycle. Following three start-up cycles increasing concentrations (0.15625 nM-100 nM) of the target to be tested were added to the chip surface after the desired scAb capture. The target was added for a 120 s association period and 420 s dissociation period followed by another regeneration, 30 s injection of glycine buffer pH 2.0 in between each cycle.
as §2

[3] = test system: 13 aa tau peptides of hT40; assay: Alanine scanning mutagenesis (ASM) peptide ELISA; type: binding, human; settings: alanine substituted peptides; numbering SEQ ID NO: 1
Description: Briefly, 5 μg/ml streptavidin (Thermo Fisher) was adsorbed to Nunc 96-well MaxiSorp plates and following incubation at 37° C. for 1 h, the plates were washed as normal and blocked with 2% MPBS. N-terminally biotinylated peptides (Prolmmune Ltd) were added to the plates and incubated for 1 h at 37° C. Subsequently, test scAbs at starting concentrations of 100-500 nM was added and double diluted across the plate for each peptide and incubated for 1 h at 37° C. Rest of the ELISA was conducted as described above and the plates were read at absorbance 450 nm. Immunoreactivity of the scAb of interest was quantified as the % of scAb was bound for each peptide at a chosen concentration (FIG. 15-20).

[4] = Table 26 summary, top scAbs, residues of hT40
[5] = residue numbers of SEQ ID NO: 1 (hT40), CDR Tables 1-11

Sequence of dGAE aggregates (P10636 614-708): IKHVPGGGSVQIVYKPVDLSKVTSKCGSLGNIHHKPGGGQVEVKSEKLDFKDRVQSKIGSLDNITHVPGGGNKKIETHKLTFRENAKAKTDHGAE
T1 sequence (P10636 1-441 isoform P10636-8): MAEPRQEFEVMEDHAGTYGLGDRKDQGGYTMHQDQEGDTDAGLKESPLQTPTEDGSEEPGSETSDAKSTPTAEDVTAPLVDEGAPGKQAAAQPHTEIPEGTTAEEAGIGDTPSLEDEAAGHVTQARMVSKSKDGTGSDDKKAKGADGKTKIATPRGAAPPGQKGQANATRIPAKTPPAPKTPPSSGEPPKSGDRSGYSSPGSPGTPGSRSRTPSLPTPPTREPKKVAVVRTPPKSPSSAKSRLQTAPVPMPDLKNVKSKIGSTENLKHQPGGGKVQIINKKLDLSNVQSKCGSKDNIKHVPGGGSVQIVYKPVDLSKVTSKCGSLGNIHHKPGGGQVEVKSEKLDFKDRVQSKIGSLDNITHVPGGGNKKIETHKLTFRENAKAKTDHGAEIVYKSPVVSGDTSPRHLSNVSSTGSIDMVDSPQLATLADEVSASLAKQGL
T2 sequence (P10636 1-441 isoform P10636-8): as above
Sequence of dGA (SEQ ID NO: 5) (P10636 614-707): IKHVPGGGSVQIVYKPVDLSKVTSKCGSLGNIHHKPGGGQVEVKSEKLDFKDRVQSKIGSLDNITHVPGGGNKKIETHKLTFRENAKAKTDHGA

Molecule | Tau proteins/fragments with positive scAb reactivity ([1]; Table 17, 'C' group scAbs) | Shortest region bound on hT40 ([1]; Table 17, 'C' group scAbs) | Epitope [1, 4] | Epitope [1, 5] | ka [2] [M⁻¹ s⁻¹] | kd [2] [s⁻¹] | ka (htau40) [M⁻¹ s⁻¹] | kd (htau40) [s⁻¹] | immunoreactivity to dGAE aggregation samples prepared in the presence of LMTM (dGAE aggregates) | Tau proteins/fragments with positive scAb reactivity ([1]; Table 16, NS, S and M clones) | ka (dGA (SEQ ID NO: 5)) [M⁻¹ s⁻¹] | Kd (dGA (SEQ ID NO: 5); dissociation rate) [s⁻¹] | critical binding residues [3]
B1 | hT40, 266-359 (R1-3) | 331-360 | 331-360 | 331-360 | 174500 | 0.000662 | 103000 | 0.001718 | increase in immunoreactivity | – | – | – | –
B2 | – | – | 297-390 | 297-390 | 252100 | 0.0007393 | 893700 | 0.002621 | – | hT40, 297-390 (dGA), 297-391 (dGAE) | 188000 | 0.00102 | –
B3 | hT40, 297-390 (dGA) | 360-390 | – | 360-390 | – | – | – | – | increase in immunoreactivity | – | – | – | –
B4 | hT40, 239-441, 348-441, 297-390 (dGA) | 367-379 | – | – | – | – | – | – | increase in immunoreactivity | – | – | – | 370 (K), and/or 374 (H)
